The assay has as its target T1, proteolipoprotein (PLP), substituted analog peptide on I-Ag7 (mouse, substituted analog of PLP 56-70 carrying lysine for tyrosine at positions 57 and 59 (residues worked out from the printed peptide and this description; the analog's own residues are not given)).
T1 peptide: DKEKLINVIHAFQYV
The experiment in a line: cytokine release.

B1: Th2-derived TCRαβ transgenic receptor (TRAV17 TRAJ50 / TRBV31 TRBJ2-3) (TCR)
alpha TRAV17 TRAJ50 CDR3: CALEGIASSSFSKLVF
beta TRBV31 TRBJ2-3 CDR3: CAWSLGGGAETLYF
With B1, the binding result is given as “recognises”.

(Values after paper PMC4046507 (2014).)
